Test results as given in publication PMC6748103, “SPOP suppresses prostate cancer through regulation of CYCLIN E1 stability” (Cell Death and Differentiation, 2018).

Molecular target: T1, GST-CCNE1 (UniProt P24864 1-410)
T1 construct: CYCLIN E1 (CCNE1), expressed in bacteria; also called GST-tagged CCEN1; GST-tagged CYCLIN E1
Assay: pull-down; GST pull-down; His-SPOP and GST-CCNE1 expressed in bacteria and affinity purified
Conditions: both partners purified

T1 sequence (P24864 whole entry): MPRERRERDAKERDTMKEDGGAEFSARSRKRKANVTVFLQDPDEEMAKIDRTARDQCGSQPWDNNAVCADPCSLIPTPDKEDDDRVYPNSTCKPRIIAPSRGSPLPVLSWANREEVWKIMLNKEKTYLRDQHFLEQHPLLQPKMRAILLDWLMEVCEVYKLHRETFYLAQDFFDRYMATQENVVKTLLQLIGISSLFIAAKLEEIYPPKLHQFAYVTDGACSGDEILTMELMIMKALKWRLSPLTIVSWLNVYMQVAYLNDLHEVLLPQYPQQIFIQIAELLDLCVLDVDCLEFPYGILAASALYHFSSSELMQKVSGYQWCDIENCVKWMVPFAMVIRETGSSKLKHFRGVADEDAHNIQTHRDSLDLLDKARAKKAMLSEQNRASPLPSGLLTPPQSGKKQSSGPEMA

B1: His-tagged SPOP (natural protein, UniProt O43791 1-374, looked up)
chain: MSRVPSPPPPAEMSSGPVAESWCYTQIKVVKFSYMWTINNFSFCREEMGEVIKSSTFSSGANDKLKWCLRVNPKGLDEESKDYLSLYLLLVSCPKSEVRAKFKFSILNAKGEETKAMESQRAYRFVQGKDWGFKKFIRRDFLLDEANGLLPDDKLTLFCEVSVVQDSVNISGQNTMNMVKVPECRLADELGGLWENSRFTDCCLCVAGQEFQAHKAILAARSPVFSAMFEHEMEESKKNRVEINDVEPEVFKEMMCFIYTGKAPNLDKMADDLLAAADKYALERLKVMCEDALCSNLSVENAAEILILADLHSADQLKTQAVDFINYHASDVLETSGWKSMVVSHPHLVAEAYRSLASAQCPFLGPPRKRLKQS
notes: SPOP, expressed in bacteria; also called His-SPOP
- binding result: binds
